In US20230168258A1 (UNIVERSIDAD DE MURCIA, published 2023):

Legend:
Test in all cases: dot-blot
human oxytocin = biological target: T1, human oxytocin (human, UniProt P01178 20-28)
T1 construct: only the oxytocin nonapeptide is meant; The form spotted in the dot-blot is not described; also called oxytocin of human
T1 peptide (looked up): CYIQNCPLG

pig oxytocin = biological target: T2, pig oxytocin (pig, UniProt P01177 20-28)
T2 construct: only the oxytocin nonapeptide is meant; The form spotted in the dot-blot is not described; also called oxytocin of pig
T2 peptide (looked up): CYIQNCPLG

horse oxytocin = biological target: T3, horse oxytocin (horse, UniProt P01176 1-9)
T3 construct: The form spotted in the dot-blot is not described; also called oxytocin of horse
T3 peptide (looked up): CYIQNCPLG

Measured: binding result

B1: monoclonal antibody P26C (antibody, V domains shown)
VH: QIQLVQSGPELKKPGETVKISCKASGYIFTNYGMNWVKQAPGKNLKWMGWINTNTGEPTYAEEFKGRFAFSLETSASIAYLKINNLKNEDTATYFCSRGGLLPLSYWGQGTLVTVSA
VL: DVVMTQTPLSLPVSLGDQASISCRSSQSLVHSNGNTYLHWFLQKPGQSPKLLIYKVSNRFSGVPDRFSGSGSGTDFTLKISRVEAEDLGVYFCSQSTHFPWTFGGGTKLEIK
notes: Mouse (BALB/c) hybridoma antibody; the isotype is stated as IgGk; It was tested as hybridoma supernatant in the ELISA; also called clone P26C; monoclonal antibody of the invention
binds: all assays above
